Reference: US20190060404A1 (published 2019)

Legend:
[1] = biological target: FGFR1-Fc (UniProt P11362); assay: SPR, FGFR1-Fc fixed on the sensor, VEGF-B167 added
[2] = biological target: human FGFR2-Fc (human) (UniProt P21802); assay: SPR, FGFR2-Fc fixed on the sensor, VEGF-B167 added
[3] = biological target: T1, VEGFR2 of C57B16 mouse retina and brain tissue (mouse, UniProt P35918 20-1345, limits assumed); assay: co-immunoprecipitation with anti-FGFR1 antibody from mouse retina and brain tissue
T1 construct: Endogenous protein in tissue lysate
T1 sequence (P35918 20-1345 limits assumed, one chain of several): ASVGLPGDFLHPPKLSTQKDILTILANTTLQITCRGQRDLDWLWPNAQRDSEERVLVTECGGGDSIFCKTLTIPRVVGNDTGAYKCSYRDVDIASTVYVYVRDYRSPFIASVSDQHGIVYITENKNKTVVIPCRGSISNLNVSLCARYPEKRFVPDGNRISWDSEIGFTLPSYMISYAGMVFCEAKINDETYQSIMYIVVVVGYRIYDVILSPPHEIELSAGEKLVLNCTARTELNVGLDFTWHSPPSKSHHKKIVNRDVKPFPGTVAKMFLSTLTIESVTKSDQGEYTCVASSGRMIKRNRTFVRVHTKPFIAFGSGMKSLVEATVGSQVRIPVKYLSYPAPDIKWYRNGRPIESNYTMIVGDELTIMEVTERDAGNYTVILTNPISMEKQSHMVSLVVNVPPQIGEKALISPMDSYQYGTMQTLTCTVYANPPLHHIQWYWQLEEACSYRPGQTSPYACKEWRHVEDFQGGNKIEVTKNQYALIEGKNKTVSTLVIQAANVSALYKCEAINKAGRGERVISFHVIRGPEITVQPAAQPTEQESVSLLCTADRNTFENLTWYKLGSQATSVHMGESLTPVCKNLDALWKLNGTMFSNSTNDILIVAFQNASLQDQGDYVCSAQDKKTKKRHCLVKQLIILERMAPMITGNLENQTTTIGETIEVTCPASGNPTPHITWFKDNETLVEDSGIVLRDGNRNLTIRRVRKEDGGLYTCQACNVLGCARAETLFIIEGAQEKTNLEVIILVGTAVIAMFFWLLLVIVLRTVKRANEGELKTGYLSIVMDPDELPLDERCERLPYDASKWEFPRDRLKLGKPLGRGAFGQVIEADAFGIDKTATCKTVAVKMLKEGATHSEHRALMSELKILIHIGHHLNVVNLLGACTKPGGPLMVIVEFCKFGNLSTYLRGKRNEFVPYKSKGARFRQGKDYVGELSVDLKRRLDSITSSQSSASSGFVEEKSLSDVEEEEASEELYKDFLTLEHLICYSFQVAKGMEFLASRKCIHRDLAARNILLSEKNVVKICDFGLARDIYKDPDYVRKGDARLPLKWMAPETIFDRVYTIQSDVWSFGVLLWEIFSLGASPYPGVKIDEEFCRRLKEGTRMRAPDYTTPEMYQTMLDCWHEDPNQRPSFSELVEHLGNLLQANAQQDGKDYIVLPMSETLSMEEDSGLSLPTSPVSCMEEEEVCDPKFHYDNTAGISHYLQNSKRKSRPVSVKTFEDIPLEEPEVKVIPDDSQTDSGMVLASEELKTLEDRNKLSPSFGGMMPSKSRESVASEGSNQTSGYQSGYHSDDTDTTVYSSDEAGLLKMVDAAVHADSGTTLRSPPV
Method: (§1) Co-immunoprecipitation assay: brain tissues and retinae of the C57B16 mice were separated, and were homogenated after added with RIPA buffer comprising protease and phosphatase inhibitor. Supernatant was obtained by centrifuging. After protein quantification, the supernatant was incubated with anti-FGFR1 antibody at 4° C. overnight. Magnetic beads combined with A/G protein were added to capture the antibody complex. 10% PAGE electrophoresis and transfer to a PVDF film were performed successively for the complex, then the complex was incubated with the primary antibody of VEGFR1, VEGFR2 or FGFR1, and was further incubated with HRP-labeled secondary antibody, ECL luminescence reagent was added to display color in the end.

[4] = biological target: T1, VEGFR2 of C57B16 mouse retina and brain …; assay: co-immunoprecipitation with anti-FGFR2 antibody from mouse brain and retinal tissue
Method: as §1
Co-Immunoprecipitation: brain tissue and retinae were extracted from the C57B16 mice. The C57B16 mice were intravitreally injected with BSA (500 ng/eye), FGF2 (100 ng/eye) or VEGF-B₁₆₇ (500 ng/eye), and their retinae were extracted 1 hour after the injection. The brain tissue and retinae, and the retinae from the injected C57B16 mice were treated by the operational procedure described in Embodiment 5, and incubated with anti-FGFR2 antibody for co-immunoprecipitation (with VEGFR1 or VEGFR2).

Sequence of FGFR1-Fc (P11362 22-376 limits assumed): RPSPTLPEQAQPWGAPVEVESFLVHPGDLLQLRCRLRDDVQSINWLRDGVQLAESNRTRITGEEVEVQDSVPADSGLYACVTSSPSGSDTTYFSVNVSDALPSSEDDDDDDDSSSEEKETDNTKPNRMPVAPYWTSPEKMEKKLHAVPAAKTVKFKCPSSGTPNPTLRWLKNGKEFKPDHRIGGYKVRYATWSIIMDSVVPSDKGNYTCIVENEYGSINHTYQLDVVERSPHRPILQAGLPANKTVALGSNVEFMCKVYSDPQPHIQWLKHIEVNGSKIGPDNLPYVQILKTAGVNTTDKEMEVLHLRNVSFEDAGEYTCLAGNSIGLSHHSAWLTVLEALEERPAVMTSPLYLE

In the case of “VEGF-B167 (from UniProt P49765 22-207) (ligand)”, the Kd [1] is reported as 15 nM and the Kd [2] is reported as 112 nM.

B1: FGFR1 of C57B16 mouse retina and brain tissue (receptor, UniProt P16092 22-822, looked up)
chain: RPAPTLPEQAQPWGVPVEVESLLVHPGDLLQLRCRLRDDVQSINWLRDGVQLVESNRTRITGEEVEVRDSIPADSGLYACVTSSPSGSDTTYFSVNVSDALPSSEDDDDDDDSSSEEKETDNTKPNRRPVAPYWTSPEKMEKKLHAVPAAKTVKFKCPSSGTPNPTLRWLKNGKEFKPDHRIGGYKVRYATWSIIMDSVVPSDKGNYTCIVENEYGSINHTYQLDVVERSPHRPILQAGLPANKTVALGSNVEFMCKVYSDPQPHIQWLKHIEVNGSKIGPDNLPYVQILKTAGVNTTDKEMEVLHLRNVSFEDAGEYTCLAGNSIGLSHHSAWLTVLEALEERPAVMTSPLYLEIIIYCTGAFLISCMLGSVIIYKMKSGTKKSDFHSQMAVHKLAKSIPLRRQVTVSADSSASMNSGVLLVRPSRLSSSGTPMLAGVSEYELPEDPRWELPRDRLVLGKPLGEGCFGQVVLAEAIGLDKDKPNRVTKVAVKMLKSDATEKDLSDLISEMEMMKMIGKHKNIINLLGACTQDGPLYVIVEYASKGNLREYLQARRPPGLEYCYNPSHNPEEQLSSKDLVSCAYQVARGMEYLASKKCIHRDLAARNVLVTEDNVMKIADFGLARDIHHIDYYKKTTNGRLPVKWMAPEALFDRIYTHQSDVWSFGVLLWEIFTLGGSPYPGVPVEELFKLLKEGHRMDKPSNCTNELYMMMRDCWHAVPSQRPTFKQLVEDLDRIVALTSNQEYLDLSIPLDQYSPSFPDTRSSTCSSGEDSVFSHEPLPEEPCLPRHPTQLANSGLKRR
notes: Endogenous protein in tissue lysate
B1: no binding [3].

B2: FGFR2 of C57B16 mouse tissue and mouse primary SMC (receptor, UniProt P21803 22-821, looked up)
chain: RPSFSLVEDTTLEPEEPPTKYQISQPEAYVVAPGESLELQCMLKDAAVISWTKDGVHLGPNNRTVLIGEYLQIKGATPRDSGLYACTAARTVDSETWIFMVNVTDAISSGDDEDDTDSSEDVVSENRSNQRAPYWTNTEKMEKRLHACPAANTVKFRCPAGGNPTSTMRWLKNGKEFKQEHRIGGYKVRNQHWSLIMESVVPSDKGNYTCLVENEYGSINHTYHLDVVERSPHRPILQAGLPANASTVVGGDVEFVCKVYSDAQPHIQWIKHVEKNGSKNGPDGLPYLKVLKAAGVNTTDKEIEVLYIRNVTFEDAGEYTCLAGNSIGISFHSAWLTVLPAPVREKEITASPDYLEIAIYCIGVFLIACMVVTVIFCRMKTTTKKPDFSSQPAVHKLTKRIPLRRQVTVSAESSSSMNSNTPLVRITTRLSSTADTPMLAGVSEYELPEDPKWEFPRDKLTLGKPLGEGCFGQVVMAEAVGIDKDKPKEAVTVAVKMLKDDATEKDLSDLVSEMEMMKMIGKHKNIINLLGACTQDGPLYVIVEYASKGNLREYLRARRPPGMEYSYDINRVPEEQMTFKDLVSCTYQLARGMEYLASQKCIHRDLAARNVLVTENNVMKIADFGLARDINNIDYYKKTTNGRLPVKWMAPEALFDRVYTHQSDVWSFGVLMWEIFTLGGSPYPGIPVEELFKLLKEGHRMDKPTNCTNELYMMMRDCWHAVPSQRPTFKQLVEDLDRILTLTTNEEYLDLTQPLEQYSPSYPDTSSSCSSGDDSVFSPDPMPYEPCLPQYPHINGSVKT
notes: Endogenous protein in tissue lysate (co-immunoprecipitation) or on cells (proximity ligation assay)
B2: no binding [4].
